Molecular target: E-cadherin (human (endogenous in MCF7, HaCaT and FFPE human tissue))
Assay: MolBoolean (proximity assay with antibody-DNA conjugates); FFPE human tissue sections after deparaffinisation and antigen retrieval; secondary proximity probes; percentage of RCPs in each category per frame

E-cadherin (human (endogenous in MCF7, HaCaT and FFPE human tissue)), sequence (P12830 23-882): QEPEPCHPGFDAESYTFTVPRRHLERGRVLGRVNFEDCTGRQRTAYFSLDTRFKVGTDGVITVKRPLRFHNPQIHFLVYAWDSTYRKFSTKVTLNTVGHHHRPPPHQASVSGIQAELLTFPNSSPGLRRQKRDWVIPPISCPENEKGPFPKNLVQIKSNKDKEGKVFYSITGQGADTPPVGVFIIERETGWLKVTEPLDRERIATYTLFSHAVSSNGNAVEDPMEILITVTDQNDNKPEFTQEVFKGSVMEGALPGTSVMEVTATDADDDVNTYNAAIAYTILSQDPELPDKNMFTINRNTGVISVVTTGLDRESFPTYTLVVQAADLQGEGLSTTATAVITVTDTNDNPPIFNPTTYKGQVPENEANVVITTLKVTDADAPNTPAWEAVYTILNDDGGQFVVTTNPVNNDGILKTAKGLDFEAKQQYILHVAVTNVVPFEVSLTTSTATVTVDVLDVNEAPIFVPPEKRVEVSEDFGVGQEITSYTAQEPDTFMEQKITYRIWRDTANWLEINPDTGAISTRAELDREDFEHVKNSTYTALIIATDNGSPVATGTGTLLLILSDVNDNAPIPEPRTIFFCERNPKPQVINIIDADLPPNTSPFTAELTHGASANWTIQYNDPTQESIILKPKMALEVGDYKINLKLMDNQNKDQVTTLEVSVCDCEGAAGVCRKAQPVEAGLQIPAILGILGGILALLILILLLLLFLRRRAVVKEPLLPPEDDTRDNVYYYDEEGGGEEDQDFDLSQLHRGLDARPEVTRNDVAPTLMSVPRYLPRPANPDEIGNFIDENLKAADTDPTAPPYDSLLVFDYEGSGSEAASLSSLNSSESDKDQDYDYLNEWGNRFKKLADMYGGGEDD

Question: How did the percent of the detected signal per image from complexes turn out when “β-catenin (from UniProt P35222 1-781) (natural protein)” was run?
Answer: 50%

From publication PMC9375095
